{
  "source": "paper PMC3664666",
  "about": "(Science signaling, 2012)",
  "molecular_target": "T1, phosphorylated Mt-MviN KHD 681-963 (M. tuberculosis, UniProt P9WJK2 681-963, phosphothreonine at 947)",
  "T1 sequence": "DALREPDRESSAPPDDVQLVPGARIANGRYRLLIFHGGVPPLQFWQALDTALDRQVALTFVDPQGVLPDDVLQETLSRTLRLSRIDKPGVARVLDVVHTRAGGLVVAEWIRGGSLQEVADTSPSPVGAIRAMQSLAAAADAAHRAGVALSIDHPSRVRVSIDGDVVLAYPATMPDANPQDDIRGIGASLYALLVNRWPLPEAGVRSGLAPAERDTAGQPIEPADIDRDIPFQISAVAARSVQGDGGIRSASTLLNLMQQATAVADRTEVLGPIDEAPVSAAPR",
  "experiment": "ITC",
  "data": [
    {"binder": "FhaA FHA domain (residues 390 to 525) (domain or fragment) PQGGGYAEPAGRDYDYGQSGAPDYGQPAPGGYSGYGQGGYGSAGTSVTLQLDDGSGRTYQLREGSNIIGRGQDAQFRLPDTGVSRRHLEIRWDGQVALLADLNSTNGTTVNNAPVQEWQLADGDVIRLGHSEIIVR", "values": [
      {"measurement": "Kd", "result": "58 ± 2", "unit": "nM"}
    ]}
  ]
}
